The target in the data set is α2-antiplasmin.

B1: endogenous plasmin of mouse brain slices (protein)
chain: VYLSECKTGIGNGYRGTMSRTKSGVACQKWGATFPHVPNYSPSTHPNEGLEENYCRNPDNDEQGPWCYTTDPDKRYDYCNIPECEEECMYCSGEKYEGKISKTMSGLDCQAWDSQSPHAHGYIPAKFPSKNLKMNYCRNPDGEPRPWCFTTDPTKRWEYCDIPRCTTPPPPPSPTYQCLKGRGENYRGTVSVTVSGKTCQRWSEQTPHRHNRTPENFPCKNLEENYCRNPDGETAPWCYTTDSQLRWEYCEIPSCESSASPDQSDSSVPPEEQTPVVQECYQSDGQSYRGTSSTTITGKKCQSWAAMFPHRHSKTPENFPDAGLEMNYCRNPDGDKGPWCYTTDPSVRWEYCNLKRCSETGGSVVELPTVSQEPSGPSDSETDCMYGNGKDYRGKTAVTAAGTPCQGWAAQEPHRHSIFTPQTNPRAGLEKNYCRNPDGDVNGPWCYTTNPRKLYDYCDIPLCASASSFECGKPQVEPKKCPGRVVGGCVANPHSWPWQISLRTRFTGQHFCGGTLIAPEWVLTAAHCLEKSSRPEFYKVILGAHEEYIRGLDVQEISVAKLILEPNNRDIALLKLSRPATITDKVIPACLPSPNYMVADRTICYITGWGETQGTFGAGRLKEAQLPVIENKVCNRVEYLNNRVKSTELCAGQLAGGVDSCQGDSGGPLVCFEKDKYILQGVTSWGLGCARPNKPGVYVRVSRFVDWIEREMRNN
Take B1: the “plasmin activity in brain slices (D-VLK chromogenic plasmin substrate assay)” value is “addition of the plasmin inhibitor α2-antiplasmin (Bajou et al., 2008) inhibited this activity”.
